Experimental data from patent US20250361282A1 (Bayer, published 2025).
Values joined by “and” are separate entries in the source; they are usually repeats but may differ in a detail not shown here. Equal entries are not always repeated.

How the values were obtained:
Assay in all cases: cell-based or functional assay
human NPRA [1] = target: T1, human NPRA (human, UniProt P16066 33-1061)
T1 sequence (looked up): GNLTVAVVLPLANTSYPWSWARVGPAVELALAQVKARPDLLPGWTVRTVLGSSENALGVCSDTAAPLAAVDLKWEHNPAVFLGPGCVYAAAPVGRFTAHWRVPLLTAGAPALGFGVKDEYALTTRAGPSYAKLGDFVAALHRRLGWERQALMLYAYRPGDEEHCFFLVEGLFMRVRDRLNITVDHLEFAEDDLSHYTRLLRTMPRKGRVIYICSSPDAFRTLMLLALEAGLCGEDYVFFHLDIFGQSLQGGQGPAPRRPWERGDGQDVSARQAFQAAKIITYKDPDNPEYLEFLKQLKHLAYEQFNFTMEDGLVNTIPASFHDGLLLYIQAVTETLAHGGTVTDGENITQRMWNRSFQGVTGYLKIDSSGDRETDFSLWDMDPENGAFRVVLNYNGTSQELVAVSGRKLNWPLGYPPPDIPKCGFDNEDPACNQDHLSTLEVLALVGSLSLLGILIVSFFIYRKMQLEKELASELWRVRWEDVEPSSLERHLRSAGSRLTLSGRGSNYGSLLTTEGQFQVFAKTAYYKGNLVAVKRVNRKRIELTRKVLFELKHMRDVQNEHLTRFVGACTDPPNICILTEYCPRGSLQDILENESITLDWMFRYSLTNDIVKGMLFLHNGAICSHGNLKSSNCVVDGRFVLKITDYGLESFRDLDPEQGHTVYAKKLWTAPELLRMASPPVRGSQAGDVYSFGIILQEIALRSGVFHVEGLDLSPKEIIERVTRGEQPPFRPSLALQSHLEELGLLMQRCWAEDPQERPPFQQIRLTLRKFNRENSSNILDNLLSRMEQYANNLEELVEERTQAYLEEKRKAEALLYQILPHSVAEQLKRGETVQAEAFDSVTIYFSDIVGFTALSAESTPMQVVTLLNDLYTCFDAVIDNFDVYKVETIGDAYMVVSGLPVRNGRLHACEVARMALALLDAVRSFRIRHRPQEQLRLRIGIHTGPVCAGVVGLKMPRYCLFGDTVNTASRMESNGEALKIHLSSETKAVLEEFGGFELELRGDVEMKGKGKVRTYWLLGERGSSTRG

human NPRA [2] = target: T2, human NPRA (human, UniProt P16066 33-1061); remark: listed apart in the source
T2 sequence (looked up): T1 sequence (looked up)

rat NPR-A = target: T3, rat NPR-A (rat, UniProt P18910 29-1057)
T3 sequence (looked up): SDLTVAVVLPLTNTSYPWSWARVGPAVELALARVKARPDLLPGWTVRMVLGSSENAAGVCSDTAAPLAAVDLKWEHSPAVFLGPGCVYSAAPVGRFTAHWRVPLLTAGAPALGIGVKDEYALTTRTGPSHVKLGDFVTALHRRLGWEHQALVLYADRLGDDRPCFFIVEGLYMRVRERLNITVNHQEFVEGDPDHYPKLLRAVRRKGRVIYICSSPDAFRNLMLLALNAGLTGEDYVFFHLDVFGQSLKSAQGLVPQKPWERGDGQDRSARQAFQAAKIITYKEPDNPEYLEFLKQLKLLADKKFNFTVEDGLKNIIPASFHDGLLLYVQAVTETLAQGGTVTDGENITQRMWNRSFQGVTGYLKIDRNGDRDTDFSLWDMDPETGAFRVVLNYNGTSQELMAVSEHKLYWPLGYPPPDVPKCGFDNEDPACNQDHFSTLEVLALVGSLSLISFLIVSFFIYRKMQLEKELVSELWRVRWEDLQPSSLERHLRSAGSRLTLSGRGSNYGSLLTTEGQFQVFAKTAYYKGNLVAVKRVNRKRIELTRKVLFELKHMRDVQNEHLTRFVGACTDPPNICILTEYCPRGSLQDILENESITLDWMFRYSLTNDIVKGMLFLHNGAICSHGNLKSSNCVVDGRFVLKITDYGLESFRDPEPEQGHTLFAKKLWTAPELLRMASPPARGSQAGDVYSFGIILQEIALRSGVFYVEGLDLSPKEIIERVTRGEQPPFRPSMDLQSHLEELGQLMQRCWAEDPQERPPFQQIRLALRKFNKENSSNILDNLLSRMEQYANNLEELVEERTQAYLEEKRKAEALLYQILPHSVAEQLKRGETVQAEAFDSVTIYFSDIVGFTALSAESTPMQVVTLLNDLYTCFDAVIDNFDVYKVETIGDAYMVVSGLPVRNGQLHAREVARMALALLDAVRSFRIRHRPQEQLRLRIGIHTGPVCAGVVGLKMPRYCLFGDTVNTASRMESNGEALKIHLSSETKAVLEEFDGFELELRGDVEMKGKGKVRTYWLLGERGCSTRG

B1: TPP-5661 (antibody)
heavy: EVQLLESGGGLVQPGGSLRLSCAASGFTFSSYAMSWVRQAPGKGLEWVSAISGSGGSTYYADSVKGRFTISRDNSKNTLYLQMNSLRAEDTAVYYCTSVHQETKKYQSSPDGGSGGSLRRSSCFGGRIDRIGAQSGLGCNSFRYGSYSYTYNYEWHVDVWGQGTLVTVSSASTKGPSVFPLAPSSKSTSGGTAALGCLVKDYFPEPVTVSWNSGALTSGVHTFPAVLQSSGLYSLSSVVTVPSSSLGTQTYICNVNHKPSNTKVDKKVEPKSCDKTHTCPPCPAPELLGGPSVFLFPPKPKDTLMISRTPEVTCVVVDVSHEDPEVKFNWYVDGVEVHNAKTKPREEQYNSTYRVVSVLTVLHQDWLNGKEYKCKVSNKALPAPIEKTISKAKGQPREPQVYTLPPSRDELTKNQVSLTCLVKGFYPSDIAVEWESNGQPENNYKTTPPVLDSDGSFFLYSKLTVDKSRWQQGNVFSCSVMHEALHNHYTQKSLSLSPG
light: QSVLTQPPSVSGAPGQRVTISCTGSSSNIGAGYDVHWYQQLPGTAPKLLIYGNSNRPSGVPDRFSGSKSGTSASLAITGLQAEDEADYYCQSYDSSLSGVVFGGGTKLTVLGQPKAAPSVTLFPPSSEELQANKATLVCLISDFYPGAVTVAWKADSSPVKAGVETTTPSKQSNNKYAASSYLSLTPEQWKSHRSYSCQVTHEGSTVEKTVAPTECS
- activity rcs (human NPRA [1]): 36%
- average rel logEC50 (human NPRA [1]): 0 delta logEC50 vs TPP-5661
- rel. activity rcs (human NPRA [1]): 0 delta logEC50 vs TPP-5661
- rel. logEC50* pcs (human NPRA [1]): 0 delta logEC50 vs TPP-5661
- rel. logEC50 ics (human NPRA [1]): 0 delta logEC50 vs TPP-5661
- rel. logEC50 pcs 1 (human NPRA [1]): 0 delta logEC50 vs TPP-5661
- rel. logEC50 pcs 2 (human NPRA [1]): 0 delta logEC50 vs TPP-5661
- rel. logEC50 pcs 3 (human NPRA [1]): 0 delta logEC50 vs TPP-5661
- rel. logEC50 pcs 4 (human NPRA [1]): 0 delta logEC50 vs TPP-5661
- rel. logEC50 pcs 5 (human NPRA [1]): 0 delta logEC50 vs TPP-5661
- rel. logEC50 pcs 6 (human NPRA [1]): 0 delta logEC50 vs TPP-5661
- rel. logEC50 pcs 7 (human NPRA [1]): 0 delta logEC50 vs TPP-5661
- rel. logEC50 pcs 8 (human NPRA [1]): 0 delta logEC50 vs TPP-5661
- rel. logEC50 pcs 9 (human NPRA [1]): 0 delta logEC50 vs TPP-5661

B2: TPP-13061 (antibody, human IgG1, lambda)
heavy: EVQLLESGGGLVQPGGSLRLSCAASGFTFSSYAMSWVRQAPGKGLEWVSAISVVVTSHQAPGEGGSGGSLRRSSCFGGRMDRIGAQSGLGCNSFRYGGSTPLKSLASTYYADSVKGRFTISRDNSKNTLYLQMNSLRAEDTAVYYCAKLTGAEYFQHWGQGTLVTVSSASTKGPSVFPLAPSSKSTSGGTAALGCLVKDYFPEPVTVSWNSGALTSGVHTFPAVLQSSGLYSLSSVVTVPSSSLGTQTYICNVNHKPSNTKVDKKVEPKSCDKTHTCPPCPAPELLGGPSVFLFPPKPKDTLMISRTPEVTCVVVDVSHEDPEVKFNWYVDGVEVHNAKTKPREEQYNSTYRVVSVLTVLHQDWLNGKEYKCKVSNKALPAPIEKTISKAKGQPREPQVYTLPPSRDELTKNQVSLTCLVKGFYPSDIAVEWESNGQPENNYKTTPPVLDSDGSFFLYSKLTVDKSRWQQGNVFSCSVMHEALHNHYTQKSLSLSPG
light: B1 light
- average rel logEC50 (vs TPP-5661) (human NPRA [2]): -0.7
- rel. logEC50* pcs (vs TPP-5661, hNPRA-HEK293) (human NPRA [2]): -0.6 and -0.8

B3: TPP-10765 (antibody, human IgG1, lambda)
heavy: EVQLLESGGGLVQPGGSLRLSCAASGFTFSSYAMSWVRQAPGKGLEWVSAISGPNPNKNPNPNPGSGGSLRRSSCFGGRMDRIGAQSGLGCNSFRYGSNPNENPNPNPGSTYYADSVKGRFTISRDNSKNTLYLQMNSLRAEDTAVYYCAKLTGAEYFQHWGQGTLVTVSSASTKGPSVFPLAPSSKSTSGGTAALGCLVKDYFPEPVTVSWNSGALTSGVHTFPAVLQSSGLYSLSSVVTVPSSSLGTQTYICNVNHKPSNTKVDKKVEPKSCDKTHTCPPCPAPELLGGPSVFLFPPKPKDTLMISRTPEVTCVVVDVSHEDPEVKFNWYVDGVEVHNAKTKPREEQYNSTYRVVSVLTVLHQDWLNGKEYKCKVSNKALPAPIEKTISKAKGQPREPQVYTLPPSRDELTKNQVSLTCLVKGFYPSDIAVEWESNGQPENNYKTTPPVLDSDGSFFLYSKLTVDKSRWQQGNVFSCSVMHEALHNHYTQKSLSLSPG
light: B1 light
- activity rcs (cGMP, hNPRA-CHO k1) (human NPRA [2]): 72%
- average rel logEC50 (vs TPP-5661) (human NPRA [2]): -0.4
- rel. activity rcs (delta logEC50 vs TPP-5661, hNPRA-CHO k1) (human NPRA [2]): -0.9
- rel. logEC50 pcs 5 (vs TPP-5661, hNPRA-CHO k1) (human NPRA [2]): -0.9
- rel. logEC50 pcs 6 (vs TPP-5661, hNPRA-CHO k1) (human NPRA [2]): -0.4
- rel. logEC50 pcs 7 (vs TPP-5661, hNPRA-CHO k1) (human NPRA [2]): 0.2

B4: TPP-10845 (antibody, human IgG1, lambda)
heavy: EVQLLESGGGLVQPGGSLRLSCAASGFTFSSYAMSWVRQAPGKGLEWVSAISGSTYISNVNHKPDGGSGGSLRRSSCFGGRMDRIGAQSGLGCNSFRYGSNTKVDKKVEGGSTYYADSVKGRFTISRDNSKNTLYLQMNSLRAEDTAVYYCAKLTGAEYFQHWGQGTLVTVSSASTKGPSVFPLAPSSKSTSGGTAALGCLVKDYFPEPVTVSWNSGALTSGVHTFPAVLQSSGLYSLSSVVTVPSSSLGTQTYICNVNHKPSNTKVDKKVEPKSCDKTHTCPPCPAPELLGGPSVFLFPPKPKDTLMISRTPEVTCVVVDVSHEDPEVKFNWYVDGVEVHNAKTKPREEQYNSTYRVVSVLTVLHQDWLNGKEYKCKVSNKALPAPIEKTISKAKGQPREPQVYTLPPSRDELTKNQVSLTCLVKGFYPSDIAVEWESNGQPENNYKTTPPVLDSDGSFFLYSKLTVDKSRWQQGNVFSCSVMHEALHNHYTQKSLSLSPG
light: B1 light
- activity rcs (cGMP, hNPRA-CHO k1) (human NPRA [2]): 67%
- average rel logEC50 (vs TPP-5661) (human NPRA [2]): -0.6
- rel. logEC50 pcs 5 (vs TPP-5661, hNPRA-CHO k1) (human NPRA [2]): -0.4
- rel. logEC50 pcs 6 (vs TPP-5661, hNPRA-CHO k1) (human NPRA [2]): -0.8

B5: TPP-10290 (antibody)
heavy: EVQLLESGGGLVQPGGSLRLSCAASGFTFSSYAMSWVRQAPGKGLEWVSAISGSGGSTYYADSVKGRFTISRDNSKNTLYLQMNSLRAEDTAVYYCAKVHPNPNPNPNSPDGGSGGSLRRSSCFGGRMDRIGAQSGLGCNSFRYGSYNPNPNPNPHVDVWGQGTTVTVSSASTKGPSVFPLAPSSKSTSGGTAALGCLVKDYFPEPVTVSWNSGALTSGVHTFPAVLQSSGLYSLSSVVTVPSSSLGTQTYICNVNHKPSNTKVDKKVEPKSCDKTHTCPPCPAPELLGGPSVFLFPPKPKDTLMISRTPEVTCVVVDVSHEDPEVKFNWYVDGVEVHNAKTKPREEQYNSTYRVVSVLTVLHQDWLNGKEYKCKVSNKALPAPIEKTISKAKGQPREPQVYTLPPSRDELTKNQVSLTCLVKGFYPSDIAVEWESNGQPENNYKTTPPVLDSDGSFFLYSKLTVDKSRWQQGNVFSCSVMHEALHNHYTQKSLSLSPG
light: B1 light
- activity rcs (human NPRA [1]): 84%
- average rel logEC50 (human NPRA [1]): -0.5 delta logEC50 vs TPP-5661
- rel. logEC50 pcs 2 (human NPRA [1]): -0.8 delta logEC50 vs TPP-5661
- rel. logEC50 pcs 3 (human NPRA [1]): -0.1 delta logEC50 vs TPP-5661

B6: TPP-10847 (antibody, human IgG1, lambda)
heavy: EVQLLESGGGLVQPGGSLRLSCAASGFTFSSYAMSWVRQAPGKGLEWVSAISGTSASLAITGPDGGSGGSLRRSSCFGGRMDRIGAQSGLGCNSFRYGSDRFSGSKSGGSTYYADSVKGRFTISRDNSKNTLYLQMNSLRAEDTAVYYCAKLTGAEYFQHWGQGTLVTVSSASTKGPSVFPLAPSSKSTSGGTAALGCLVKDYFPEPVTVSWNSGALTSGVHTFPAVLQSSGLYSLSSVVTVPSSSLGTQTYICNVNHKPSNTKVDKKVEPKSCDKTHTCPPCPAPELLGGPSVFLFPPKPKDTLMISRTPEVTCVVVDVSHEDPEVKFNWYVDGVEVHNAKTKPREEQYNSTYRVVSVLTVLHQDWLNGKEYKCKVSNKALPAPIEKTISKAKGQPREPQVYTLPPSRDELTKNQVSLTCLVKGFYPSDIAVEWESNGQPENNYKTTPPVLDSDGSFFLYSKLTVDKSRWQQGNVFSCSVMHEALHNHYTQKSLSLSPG
light: B1 light
- average rel logEC50 (vs TPP-5661) (human NPRA [2]): -0.5
- rel. logEC50 pcs 5 (vs TPP-5661, hNPRA-CHO k1) (human NPRA [2]): 0
- rel. logEC50 pcs 6 (vs TPP-5661, hNPRA-CHO k1) (human NPRA [2]): -0.9

B7: TPP-13054 (antibody, human IgG1, lambda)
heavy: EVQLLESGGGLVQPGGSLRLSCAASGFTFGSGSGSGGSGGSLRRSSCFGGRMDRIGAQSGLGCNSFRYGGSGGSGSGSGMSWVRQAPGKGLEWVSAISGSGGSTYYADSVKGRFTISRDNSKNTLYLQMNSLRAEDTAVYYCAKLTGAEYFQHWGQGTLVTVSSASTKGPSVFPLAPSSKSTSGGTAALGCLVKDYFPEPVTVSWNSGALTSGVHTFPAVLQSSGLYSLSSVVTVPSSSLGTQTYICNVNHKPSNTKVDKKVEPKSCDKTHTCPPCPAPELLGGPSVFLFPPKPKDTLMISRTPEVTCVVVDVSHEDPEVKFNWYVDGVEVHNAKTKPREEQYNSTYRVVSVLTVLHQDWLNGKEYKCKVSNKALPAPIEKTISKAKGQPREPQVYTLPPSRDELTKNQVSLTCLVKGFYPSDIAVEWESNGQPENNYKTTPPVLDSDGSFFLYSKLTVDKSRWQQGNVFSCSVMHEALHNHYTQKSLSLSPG
light: B1 light
- average rel logEC50 (vs TPP-5661) (human NPRA [2]): -0.8
- rel. logEC50* pcs (vs TPP-5661, hNPRA-HEK293) (human NPRA [2]): -0.7 and -0.8

B8: TPP-10992 (antibody, human IgG4 S228P, lambda)
heavy: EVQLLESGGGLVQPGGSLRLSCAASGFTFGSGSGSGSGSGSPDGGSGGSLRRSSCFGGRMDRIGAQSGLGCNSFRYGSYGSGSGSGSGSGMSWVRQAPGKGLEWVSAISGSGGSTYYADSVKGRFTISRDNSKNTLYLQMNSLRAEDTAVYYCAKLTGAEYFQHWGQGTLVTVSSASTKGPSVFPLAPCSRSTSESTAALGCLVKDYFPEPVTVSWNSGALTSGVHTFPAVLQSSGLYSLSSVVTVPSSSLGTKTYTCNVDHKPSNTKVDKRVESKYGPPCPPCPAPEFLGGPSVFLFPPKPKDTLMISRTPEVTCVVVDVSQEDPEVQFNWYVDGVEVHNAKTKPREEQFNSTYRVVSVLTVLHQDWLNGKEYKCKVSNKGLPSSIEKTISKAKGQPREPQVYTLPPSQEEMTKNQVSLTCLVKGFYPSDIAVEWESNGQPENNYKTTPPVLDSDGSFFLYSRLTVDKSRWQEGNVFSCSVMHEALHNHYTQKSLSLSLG
light: B1 light
- EC50, fluorescence signal of rat NPR-A / CNGA2 (cGMP biosensor) / GCaMP6 CHO reporter cells (rat NPR-A): 180 nM

B9: TPP-11157 (antibody, V domains shown)
VH: GFTFSSYAMSWVRQAPGKGLEWVSAISGSVVVTSHQAPGGGSGGGEKKKLKSLAYGSTYYADSVKGRFTISRDNSKNTLYLQMNSLRAEDTAVYYCAKLTGAEYFQHWGQGTLVTVSS
VL: QSVLTQPPSVSGAPGQRVTISCTGSSSNIGAGYDVHWYQQLPGTAPKLLIYGNSNRPSGVPDRFSGSKSGTSASLAITGLQAEDEADYYCQSYDSSLSGVVFGGGTKLTVLG
- EC50, fluorescence signal of rat NPR-A / CNGA2 (cGMP biosensor) / GCaMP6 CHO reporter cells (rat NPR-A): 11 nM
- EC50 on rNPRA reporter cells (rat NPR-A): < 20 nM
